Experiment in all cases: G' assay
The target of assay [1] is T1, GST-DVL2 PDZ domain 1 (Homo sapiens (Human)), O14641.
T1 chain: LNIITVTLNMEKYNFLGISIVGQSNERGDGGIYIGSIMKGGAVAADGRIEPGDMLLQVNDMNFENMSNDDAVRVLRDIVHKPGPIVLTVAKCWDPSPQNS

In assay [2] the target is T2, GST-MUPP1 PDZ domain 3 (Homo sapiens (Human)), O75970.
T2 chain: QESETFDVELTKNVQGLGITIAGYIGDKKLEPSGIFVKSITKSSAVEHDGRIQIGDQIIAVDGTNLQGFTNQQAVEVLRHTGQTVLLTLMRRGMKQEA

A further assay concerns the target T3, GST-ZO-3 PDZ domain 1.
T3 chain: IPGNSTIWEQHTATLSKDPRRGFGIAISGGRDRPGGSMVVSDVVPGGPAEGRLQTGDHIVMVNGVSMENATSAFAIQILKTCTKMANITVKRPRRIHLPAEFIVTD

Assay [3] deals with T4, GST-ZO-1 PDZ domain 1 (Rattus norvegicus (Rat)), A0A0G2.
T4 chain: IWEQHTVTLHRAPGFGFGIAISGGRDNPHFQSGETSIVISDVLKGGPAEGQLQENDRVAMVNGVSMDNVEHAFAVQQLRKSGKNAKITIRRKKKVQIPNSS

The target in assay [4] is T5, GST-MUPP1 PDZ domain 5 (Homo sapiens (Human)), O75970.
T5 chain: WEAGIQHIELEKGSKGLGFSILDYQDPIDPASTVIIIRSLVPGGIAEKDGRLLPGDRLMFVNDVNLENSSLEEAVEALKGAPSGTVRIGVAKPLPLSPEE

In assay [5] the target is T6, GST-MUPP1 PDZ domain 1 (Homo sapiens (Human)), O75970.
T6 chain: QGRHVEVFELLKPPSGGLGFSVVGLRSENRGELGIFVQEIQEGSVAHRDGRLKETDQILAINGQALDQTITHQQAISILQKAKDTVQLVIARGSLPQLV

Assay [6] concerns the target T7, GST-EZRIN Binding Protein 50 PDZ domain 2 (Homo sapiens (Human)), O14745.
T7 chain: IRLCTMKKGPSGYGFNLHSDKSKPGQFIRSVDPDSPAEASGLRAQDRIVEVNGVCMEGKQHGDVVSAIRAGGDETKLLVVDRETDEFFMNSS

The target of assay [7] is T8, GST-PDZK1 PDZ domains 2, 3, 4, Q5T2W1.
T8 chain: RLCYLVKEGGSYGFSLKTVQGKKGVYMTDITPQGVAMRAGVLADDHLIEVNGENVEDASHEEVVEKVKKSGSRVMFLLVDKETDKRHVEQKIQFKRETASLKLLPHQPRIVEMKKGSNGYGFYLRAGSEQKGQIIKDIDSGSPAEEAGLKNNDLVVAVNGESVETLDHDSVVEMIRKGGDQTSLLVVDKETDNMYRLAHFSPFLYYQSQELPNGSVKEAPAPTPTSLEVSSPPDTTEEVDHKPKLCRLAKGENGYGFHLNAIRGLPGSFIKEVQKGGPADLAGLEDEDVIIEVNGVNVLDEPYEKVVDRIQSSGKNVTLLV

For assay [8], the target named is T9, GST-Shank 3 PDZ domain 1 (human (hypothetical, computer cloned)), Q9BYB0.
T9 chain: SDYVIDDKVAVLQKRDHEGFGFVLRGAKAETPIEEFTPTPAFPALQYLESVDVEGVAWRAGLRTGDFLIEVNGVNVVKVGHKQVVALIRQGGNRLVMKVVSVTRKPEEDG

For assay [9], the target named is GST-KIAA1634 PDZ domain 1 (Homo sapiens (Human)), Q5TCQ9.
Sequence of GST-KIAA1634 PDZ domain 1 (Homo sapiens (Human)), Q5TCQ9 (Q5TCQ9 401-502): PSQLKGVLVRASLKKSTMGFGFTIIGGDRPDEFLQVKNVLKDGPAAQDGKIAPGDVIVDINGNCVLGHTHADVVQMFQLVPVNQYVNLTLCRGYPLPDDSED
For assay [10], the target named is T10, GST-Syntrophin 1 alpha PDZ domain 1 (Homo sapiens (Human)), Q13424.
T10 chain: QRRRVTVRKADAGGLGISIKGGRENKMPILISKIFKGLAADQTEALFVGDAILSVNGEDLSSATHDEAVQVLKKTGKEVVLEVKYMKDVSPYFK

The target of assay [11] is T11, GST-PSD95 PDZ domain 3 (Homo sapiens).
T11 chain: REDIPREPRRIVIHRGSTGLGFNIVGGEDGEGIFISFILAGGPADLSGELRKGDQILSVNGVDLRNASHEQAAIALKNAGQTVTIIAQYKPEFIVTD

The target of assay [12] is T12, GST-DLG2 PDZ domain 2 (Homo sapiens (Human)), Q15700.
T12 chain: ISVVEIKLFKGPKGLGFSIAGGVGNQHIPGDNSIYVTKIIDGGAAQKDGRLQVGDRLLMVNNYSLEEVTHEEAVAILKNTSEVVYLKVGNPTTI

Assay [13] deals with T13, GST-PTN-4 PDZ domain 1 (Homo sapiens (Human)), P29074.
T13 chain: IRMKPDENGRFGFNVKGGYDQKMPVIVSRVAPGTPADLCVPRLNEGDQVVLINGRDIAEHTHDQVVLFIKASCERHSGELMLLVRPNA

Assay [14] addresses T14, GST-X-11 beta PDZ domain 1 (Rattus norvegicus (Rat)), O35431.
T14 chain: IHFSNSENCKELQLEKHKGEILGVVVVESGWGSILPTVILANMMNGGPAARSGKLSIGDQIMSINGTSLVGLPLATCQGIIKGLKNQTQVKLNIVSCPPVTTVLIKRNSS

Assay [15] addresses T15, GST-DLG5 PDZ domain 2 (Homo sapiens (Human)), Q8TDM6.
T15 chain: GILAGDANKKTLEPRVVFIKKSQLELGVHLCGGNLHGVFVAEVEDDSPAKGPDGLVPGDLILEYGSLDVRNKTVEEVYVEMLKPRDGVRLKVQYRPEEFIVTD

Assay [16] addresses T16, GST-ZO-3 PDZ domain 2 (Homo sapiens (Human)), O95049.
T16 chain: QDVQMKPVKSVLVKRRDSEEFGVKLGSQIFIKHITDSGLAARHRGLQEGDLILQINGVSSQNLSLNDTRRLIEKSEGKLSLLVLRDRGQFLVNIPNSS

The target of assay [17] is T17, GST-SITAC-18 PDZ domain 1 (Homo sapiens (Human)), Q9H190.
T17 chain: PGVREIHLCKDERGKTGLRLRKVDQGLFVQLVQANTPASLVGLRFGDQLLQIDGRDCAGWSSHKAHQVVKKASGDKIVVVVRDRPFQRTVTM
Further: key of the grades not given here.

B1: MINT-1 (peptide)
peptide: KTMPAAMYRLLTAQEQPVYI
modifications: not checked
For B1, the Classification in assay [1] was determined as 2 A450 class; in assay [2], 3 A450 class; with GST-ZO-3 PDZ domain 1, 2 A450 class; in [3], 1 A450 class; in [4] it was 2 A450 class; in assay [5] it was 1 A450 class.

B2: LPAP (peptide)
peptide: AWDDSARAAGGQGLHVTAL
modifications: not checked
Regarding B2, the Classification in assay [6] turned out to be 4 A450 class; in [7], 3 A450 class; in assay [8] it was 3 A450 class.

B3: KIA 1481 (peptide)
peptide: PIPAGGCTFSGIFPTLTSPL
modifications: not checked
For the molecule B3, the Classification in [6] was determined as 2 A450 class; in assay [9] it was 2 A450 class; in assay [7] it was 2 A450 class; in [8] it was 3 A450 class.

B4: a-actinin 2 (peptide)
peptide: VPGALDYAAFSSALYGESDL
modifications: not checked
As to B4, in [10], the Classification turned out to be 3 A450 class.

B5: NMDA Glutamate Receptor 2C (cysteine-free) (peptide)
peptide: TQGFPGPATWRRISSLESEV
modifications: not checked
With B5, the Classification in [11] amounted to 2 A450 class; in assay [9], 5 A450 class; in assay [12], 5 A450 class; in assay [13] it was 2 A450 class; in assay [4], 1 A450 class; in assay [10], 4 A450 class.

B6: TAX (peptide)
peptide: QISPGGLEPPSEKHFRETEV
modifications: not checked
For B6, the Classification in [11] was 1 A450 class; in assay [9], 5 A450 class; in assay [12] it was 5 A450 class; in assay [13], 2 A450 class.

B7: catenin - delta 2 (peptide)
peptide: PYSELNYETSHYPASPDSWV
modifications: not checked
Consider B7, for which the Classification in assay [12] is 1 A450 class.

B8: AdenoE4 typ9 (peptide)
peptide: VGTLLLERVIFPSVKIATLV
modifications: not checked
As for B8, the Classification in [9] was found to be 5 A450 class; in assay [12], 5 A450 class; in assay [3], 2 A450 class.

B9: CSPG4 (chondroitin sulfae proteoglycan 4, melanoma-associated) (peptide)
peptide: ELLQFCRTPNPALKNGQYWV
modifications: not checked
Take B9: the Classification amounted to 5 A450 class in [9]; 5 A450 class in assay [1]; 2 A450 class in the assay with GST-ZO-3 PDZ domain 1; 5 A450 class in [3]; 5 A450 class in [4]; 2 A450 class in [5].

B10: alpha-2A Adrenergic receptor (peptide)
peptide: HDFRRAFKKILARGDRKRIV
modifications: not checked
B10: the Classification in assay [14] is 2 A450 class; in [15], 1 A450 class; in assay [16], 3 A450 class; in assay [17], 4 A450 class.

B11: ephrin B2 (peptide)
peptide: ILNSIQVMRAQMNQIQSVEV
modifications: not checked
As for B11, the Classification was 2 A450 class in [14]; 1 A450 class in assay [15]; 1 A450 class in [2]; 2 A450 class in assay [16]; 1 A450 class with GST-ZO-3 PDZ domain 1; 3 A450 class in assay [3]. This molecule also displayed a Classification in assay [17] of 3 A450 class.

Source of the values: patent US20050282743A1, “Molecular interactions in cells” (Arbor Vita Corporation, priority 2001, published 2005).
